We go through 2 molecules from article PMC7616478 (Proteins, 2024).

Assay [1] has as its target C-Mad2* (closed conformation of full-length human R133A Mad2) (human) (UniProt Q13257). Kind of assay: 15N-CEST + 15N-CPMG relaxation dispersion NMR.
Assay [2] addresses L5I Mad2* (L5I R133A Mad2) (human, UniProt Q13257 1-205, L5I | R133A). The assay can be described thus: NMR titration.
The target in assay [3] is C-Mad2* (closed conformation of full-length human R133A Mad2) (human, UniProt Q13257 1-205, R133A). Kind of assay: NMR titration.
Chain of C-Mad2* (closed conformation of full-length human R133A Mad2) (Q13257 whole entry R133A): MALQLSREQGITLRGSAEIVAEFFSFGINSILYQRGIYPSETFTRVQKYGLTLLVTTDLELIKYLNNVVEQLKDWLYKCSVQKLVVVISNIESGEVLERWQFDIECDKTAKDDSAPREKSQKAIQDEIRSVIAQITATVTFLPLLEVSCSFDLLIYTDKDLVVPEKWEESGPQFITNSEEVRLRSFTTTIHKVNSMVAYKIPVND

Chain of L5I Mad2* (L5I R133A Mad2) (Q13257 whole entry L5I/R133A): as the sequence (Q13257 whole entry R133A) above, with L5I counted along it

The term Kd denotes the free concentration of one partner at which half of the binding sites on the other are occupied at equilibrium, for simple one-to-one binding. Broadly, the koff is the first-order rate constant of dissociation. As a reminder, the kon is the second-order rate constant of association. Take “C-Mad2* (closed conformation of full-length human R133A Mad2) (from UniProt Q13257 1-205) (natural protein)”: in assay [1], the equilibrium dissociation constant (Kd) was found to be 3.4 mM, the dissociation rate constant (koff) was 152 s⁻¹, the kon is 44000 M⁻¹ s⁻¹ and the population of the excited state E1 (pE1) at 133 μM was 3.5%.
Turning to SWYSYPPPQRAV [Mad2-binding peptide 1 (MBP1)], the binding result in assay [2] and in assay [3] was “binds” each time.
